Results taken from PMC12102759.

B1: MBOAT1 peptide 17-32 (Lysophospholipid acyltransferase 1), 16-mer library wild type / NSP3 ADRP (ORF1ab Nsp3b ADRP, residues 1023-1192) (parent)
chain 1: STYLHPLSELLGIPLD
chain 2: not shown
B2: NEK9 peptide 738-753 (Serine/threonine-protein kinase Nek9), 16-mer library wild type / NSP9 (ORF1ab Nsp9, residues 4141-4253) (parent)
chain 1: SGLSIGTVFQSSSPGG
chain 2: NNELSPVALRQMSCAAGTTQTACTDDNALAYYNTTKGGRFVLALLSDLQDLKWARFPKSDGTGTIYTELEPPCRFVTDTPKGPKVKYLYFIKGLNNLNRGMVLGSLAATVRLQ
B3: TET3 peptide 460-475 (Methylcytosine dioxygenase TET3), 16-mer library wild type / NSP3 SUD-M (ORF1ab Nsp3c SUD-M, residues 1356-1493) (parent)
chain 1: MAELEQLLGSASDYIQ
chain 2: LPSIISNEKQEILGTVSWNLREMLAHAEETRKLMPVCVETKAIVSTIQRKYKGIKIQEGVVDYGARFYFYTSKTTVASLINTLNDLNETLVTMPLGYVTHGLNLEEAARYMRSLKVPATVSVSSPDAVTAYNGYLTSS

Variants of: B1
Settings: with NSP3 ADRP (ORF1ab Nsp3b ADRP, residues 1023-1192); bait immobilised on MaxiSorp plates (10 µg), library pre-cleared on GST, 2 h binding at 4 °C, five washes; one round per day, days 1-4; value from days 2 and 3; keep out of graded; scale: average fractional NGS count over selection days 2 and 3

Going from chain 1 S1Q to chain 1 S1R, the screen value falls from 0.000187 to 0.

First: chain 1 P14F
Second: chain 1 P14T
The screen value of the first is lower: 0 for the first, 0.000186 for the second.

Going from chain 1 P14N to chain 1 P14I, the screen value falls from 3.9e-05 to 2.27e-05.

Going from chain 1 P14Q to chain 1 P14E, the screen value rises from 3.28e-05 to 7.55e-05.

Going from chain 1 P14S to chain 1 P14G, the screen value rises from 1.48e-05 to 0.000153.

Compared with chain 1 P14Y, chain 1 P14R is lower in screen value: 1.08e-05 for the first, 0 for the second.

First: chain 1 P14M
Second: chain 1 P14D
The screen value of the first is higher: 0.00294 for the first, 0.000131 for the second.

Going from chain 1 L10F to chain 1 L10G, the screen value falls from 0.00233 to 0.

First: chain 1 L10R
Second: chain 1 L10Y
The screen value of the first is lower: 0 for the first, 0.157 for the second.

First: chain 1 L10M
Second: chain 1 L10S
The screen value of the first is higher: 0.000281 for the first, 4.6e-05 for the second.

First: chain 1 L10H
Second: chain 1 L10T
The screen value of the first is higher: 3e-05 for the first, 0 for the second.

chain 1 L10K and chain 1 L10Q are the same in screen value: 0 for the first, 0 for the second.

Compared with chain 1 L10N, chain 1 L10V is lower in screen value: 1.09e-05 for the first, 0 for the second.

First: chain 1 L10I
Second: chain 1 E9Y
The screen value of the first is higher: 1.63e-05 for the first, 0 for the second.

chain 1 E9I and chain 1 E9R are the same in screen value: 0 for the first, 0 for the second.

chain 1 E9L and chain 1 E9V are the same in screen value: 0 for the first, 0 for the second.

chain 1 E9T and chain 1 E9N are the same in screen value: 0 for the first, 0 for the second.

chain 1 E9G and chain 1 E9M are the same in screen value: 0 for the first, 0 for the second.

chain 1 E9S and chain 1 E9H are the same in screen value: 0 for the first, 0 for the second.

Going from chain 1 L4Y to chain 1 L4F, the screen value rises from 0.000191 to 0.000245.

Going from chain 1 L4W to chain 1 L4R, the screen value falls from 0.000705 to 0.

First: chain 1 L4M
Second: chain 1 L4E
The screen value of the first is higher: 8.68e-05 for the first, 0 for the second.

Compared with chain 1 L4D, chain 1 L4V is higher in screen value: 0 for the first, 0.000192 for the second.

First: chain 1 L4A
Second: chain 1 L4H
The screen value of the first is lower: 1.65e-05 for the first, 0.000101 for the second.

chain 1 L4S and chain 1 L4N are the same in screen value: 0 for the first, 0 for the second.

First: chain 1 L4P
Second: chain 1 L15E
The screen value of the first is higher: 7.55e-05 for the first, 0 for the second.

chain 1 L15P and chain 1 L15A are the same in screen value: 0 for the first, 0 for the second.

Going from chain 1 L15Q to chain 1 L15T, the screen value rises from 0 to 9.33e-05.

Going from chain 1 L15Y to chain 1 L15M, the screen value falls from 0.000938 to 0.000121.

Going from chain 1 L15W to chain 1 L15I, the screen value rises from 8.57e-05 to 0.000505.

First: chain 1 L15V
Second: chain 1 L11R
The screen value of the first is higher: 0.000529 for the first, 4.2e-05 for the second.

Compared with chain 1 L11H, chain 1 L11N is higher in screen value: 0 for the first, 2.27e-05 for the second.

Going from chain 1 L11M to chain 1 L11S, the screen value rises from 1.65e-05 to 3.31e-05.

Going from chain 1 L11A to chain 1 L11W, the screen value rises from 8.96e-05 to 0.0297.

First: chain 1 L11Y
Second: chain 1 L11I
The screen value of the first is higher: 0.00171 for the first, 0.000109 for the second.

Compared with chain 1 L11G, chain 1 L11Q is lower in screen value: 7.04e-06 for the first, 0 for the second.

chain 1 S8N and chain 1 S8G are the same in screen value: 0 for the first, 0 for the second.

Variants of: B2
Settings: with NSP9 (ORF1ab Nsp9, residues 4141-4253); bait immobilised on MaxiSorp plates (10 µg), library pre-cleared on GST, 2 h binding at 4 °C, five washes; one round per day, days 1-4; value from days 2 and 3; keep out of graded; scale: average fractional NGS count over selection days 2 and 3

First: chain 1 SGLSIGTVNQSSSPGG [chain 1 F9N]
Second: chain 1 SGLSIGTVKQSSSPGG [chain 1 F9K]
The screen value of the first is higher: 9.97e-05 for the first, 0 for the second.

Compared with chain 1 SGLSIGTVEQSSSPGG [chain 1 F9E], chain 1 SGLSIGTVVQSSSPGG [chain 1 F9V] is lower in screen value: 0.000224 for the first, 0.000209 for the second.

With chain 1 SGLSIGTVTQSSSPGG [chain 1 F9T] the screen value was 0.

Variants of: B3
Settings: with NSP3 SUD-M (ORF1ab Nsp3c SUD-M, residues 1356-1493); bait immobilised on MaxiSorp plates (10 µg), library pre-cleared on GST, 2 h binding at 4 °C, five washes; one round per day, days 1-4; value from days 2 and 3; keep out of graded; scale: average fractional NGS count over selection days 2 and 3

Going from chain 1 MAELKQLLGSASDYIQ [chain 1 E5K] to chain 1 MAELDQLLGSASDYIQ [chain 1 E5D], the screen value rises from 0 to 0.000325.

chain 1 MAELWQLLGSASDYIQ [chain 1 E5W] and chain 1 MAEMEQLLGSASDYIQ [chain 1 L4M] are the same in screen value: 0 for the first, 0 for the second.

chain 1 MAEREQLLGSASDYIQ [chain 1 L4R] and chain 1 MAEGEQLLGSASDYIQ [chain 1 L4G] are the same in screen value: 0 for the first, 0 for the second.

chain 1 MAEYEQLLGSASDYIQ [chain 1 L4Y] and chain 1 MTELEQLLGSASDYIQ [chain 1 A2T] are the same in screen value: 0 for the first, 0 for the second.

Compared with chain 1 MHELEQLLGSASDYIQ [chain 1 A2H], chain 1 MWELEQLLGSASDYIQ [chain 1 A2W] is lower in screen value: 3.41e-05 for the first, 0 for the second.

chain 1 MRELEQLLGSASDYIQ [chain 1 A2R] and chain 1 MAELEQLLGSNSDYIQ [chain 1 A11N] are the same in screen value: 0 for the first, 0 for the second.

chain 1 MAELEQLLGSWSDYIQ [chain 1 A11W] and chain 1 MAQLEQLLGSASDYIQ [chain 1 E3Q] are the same in screen value: 0 for the first, 0 for the second.

chain 1 MANLEQLLGSASDYIQ [chain 1 E3N] and chain 1 MAMLEQLLGSASDYIQ [chain 1 E3M] are the same in screen value: 0 for the first, 0 for the second.

Compared with chain 1 MAWLEQLLGSASDYIQ [chain 1 E3W], chain 1 MATLEQLLGSASDYIQ [chain 1 E3T] is higher in screen value: 6.52e-05 for the first, 0.000884 for the second.

chain 1 MAELEQLLGSASDTIQ [chain 1 Y14T] and chain 1 MAELEQLLGSASDFIQ [chain 1 Y14F] are the same in screen value: 0 for the first, 0 for the second.

chain 1 MAELEPLLGSASDYIQ [chain 1 Q6P] and chain 1 MAELEYLLGSASDYIQ [chain 1 Q6Y] are the same in screen value: 0 for the first, 0 for the second.

chain 1 MAELEKLLGSASDYIQ [chain 1 Q6K] and chain 1 MAELEGLLGSASDYIQ [chain 1 Q6G] are the same in screen value: 0 for the first, 0 for the second.

chain 1 MAELESLLGSASDYIQ [chain 1 Q6S] and chain 1 MAELEQLLGSAPDYIQ [chain 1 S12P] are the same in screen value: 0 for the first, 0 for the second.

chain 1 MAELEQLLGSASSYIQ [chain 1 D13S] and chain 1 MAELEQLLGSASIYIQ [chain 1 D13I] are the same in screen value: 0 for the first, 0 for the second.

chain 1 MAELEQLLGSASNYIQ [chain 1 D13N] and chain 1 MAELEQLLGSASGYIQ [chain 1 D13G] are the same in screen value: 0 for the first, 0 for the second.

chain 1 MAELEQLLGSASFYIQ [chain 1 D13F] and chain 1 TAELEQLLGSASDYIQ [chain 1 M1T] are the same in screen value: 0 for the first, 0 for the second.

chain 1 RAELEQLLGSASDYIQ [chain 1 M1R] and chain 1 KAELEQLLGSASDYIQ [chain 1 M1K] are the same in screen value: 0 for the first, 0 for the second.

chain 1 GAELEQLLGSASDYIQ [chain 1 M1G] and chain 1 HAELEQLLGSASDYIQ [chain 1 M1H] are the same in screen value: 0 for the first, 0 for the second.

chain 1 MAELEQLLGSASDYRQ [chain 1 I15R] and chain 1 MAELEQLLGSASDYMQ [chain 1 I15M] are the same in screen value: 0 for the first, 0 for the second.

chain 1 MAELEQLLGSASDYGQ [chain 1 I15G] and chain 1 MAELEQTLGSASDYIQ [chain 1 L7T] are the same in screen value: 0 for the first, 0 for the second.

chain 1 MAELEQQLGSASDYIQ [chain 1 L7Q] and chain 1 MAELEQPLGSASDYIQ [chain 1 L7P] are the same in screen value: 0 for the first, 0 for the second.

chain 1 MAELEQNLGSASDYIQ [chain 1 L7N] and chain 1 MAELEQLEGSASDYIQ [chain 1 L8E] are the same in screen value: 0 for the first, 0 for the second.

chain 1 MAELEQLWGSASDYIQ [chain 1 L8W] and chain 1 MAELEQLSGSASDYIQ [chain 1 L8S] are the same in screen value: 0 for the first, 0 for the second.

chain 1 MAELEQLIGSASDYIQ [chain 1 L8I] and chain 1 MAELEQLLGGASDYIQ [chain 1 S10G] are the same in screen value: 0 for the first, 0 for the second.
